Here are results for 1 substance from paper PMC11906611.

Where two headings read alike, the source gives them in different places.

Usually Kd stands for the constant that tells how readily two partners part at equilibrium. The low end stands for tighter binding, the high end for weaker binding.

In assay [1] the target is FruR labelled with NT-647 (wild type, for MST) (Faecalibacterium prausnitzii A2-165). Put plainly: MST.
Assay [2] has the same target. Put plainly: MST. This is another data set of the same source.

As to “HPr2, unlabeled (wild type, for MST) (natural protein)”, the Kd was 448 nM in assay [1] and 1.07 nM in assay [2].
